The source of these data is US20040023255.

The data set relates to microtubules.

For HsKip3d M1-S357 protein, the “Km for microtubule stimulation (coupled PK/LDH microtubule-stimulated ATPase assay, Michaelis-Menten fit)” value is given as “a Km for microtubule stimulation of 0.2 µM”.
